Experimental data as given in the Human Domainome abundance scans (Beltran et al. 2025).

B1: Nuclear receptor subfamily 4 group A member 2, residues 260 to 336; numbered along this chain, P43354 (parent)
chain: EGLCAVCGDNAACQHYGVRTCEGCKGFFKRTVQKNAKYVCLANKNCPVDKRRRNRCQYCRFQKCLAVGMVKEVVRTD

Variants of: B1
Assay: abundance fitness (aPCA) (normalised: wild type 0, dead -1); higher = more abundant; growth selection in yeast, the domain comes from the species named
Details: Homo sapiens

Abundance fitness, by site and new letter:
R75: C 0.057 | L 0.015 | N 0 | S 0.063 | A -0.01 | M 0.019 | V 0 | I -0.017 | Q 0.065 | T 0.214 | G 0.033 | W -0.103 | Y -0.112
D77: A -0.006 | I -0.347 | R -0.3 | L -0.101 | S -0.124 | G -0.042 | P 0.163 | K -0.1 | V -0.122 | F -0.229 | M -0.092 | C -0.061 | E 0.117 | W -0.211
Y58: L -0.441 | F 0.051 | D -0.123 | C -0.173 | E -0.055 | W -0.063 | G -0.298 | V -0.761 | R -0.345 | S 0.129
F61: Q -0.187 | C -0.701 | T -0.377 | V -0.401 | D -0.745 | W -0.05 | I 0.007 | R -0.989 | G -1.01 | S -0.235 | L 0.057 | M 0.072
M69: L -0.07 | A -0.191 | I -0.618 | R -0.64 | C -0.247 | E -0.448 | D -0.704 | W -0.235 | V -0.285 | G -0.463 | F -0.042 | S -0.627
L65: A -0.146 | N 0.153 | T -0.659 | G -0.264 | M -0.262 | S -0.308 | Y -0.317 | E -0.038 | W -0.299 | V -0.096 | I -0.274
G68: S -0.287 | M -0.085 | V -0.836 | R -0.314 | I -0.481 | L -0.589 | C -0.489 | D -0.403 | A -0.26 | E -0.63 | N -0.126 | F -0.436
K71: Y 0.114 | E -0.046 | G -0.081 | F -0.258 | M -0.352 | I -0.19 | R -0.054 | L -0.078 | Q 0.33 | A 0.008 | P 0.141 | D -0.296 | W -0.194
A66: L 0.005 | R -0.114 | I -0.099 | W -0.282 | C -0.21 | F -0.228 | E -0.051 | M -0.032 | N 0.101 | V -0.17 | G -0.013 | T -0.223 | D 0.135 | K -0.2
C64: G -0.277 | I -0.399 | F -0.848 | L -0.372 | W -0.859 | A -0.163 | R -0.608 | S -0.397
T76: I -0.007 | F -0.079 | W -0.085 | Y 0.168 | E 0.161 | P -0.004 | S -0.014 | C 0.109 | L -0.228 | Q -0.152 | M -0.166 | K -0.041 | R 0.015 | N 0.221 | D 0.098 | A 0.117 | V -0.019
K63: T 0.038 | D -0.52 | M -0.025 | W -0.569 | E -0.898 | G -0.559 | A -0.048 | R -0.206 | L -0.354 | V -0.304
C59: R -1.17 | A -0.549 | F -1.03 | E -0.318 | W -1.33 | V -0.919
E72: S -0.012 | F -0.267 | W -0.276 | P 0.116 | I -0.173 | C -0.344 | L -0.468 | D 0.11 | V -0.268 | G -0.067 | K 0.154 | M -0.099 | A -0.133 | T 0.092 | N 0.024
